Laboratory results reported in patent publication US20140087995A1 (published 2014).
Where two headings read alike, the source gives them in different places. Numbered stars: 1 amine (or outer) side, 2 acyl side, 3 side chain; on linkers, the order of the positions; unused ones are H or OH. Bridge positions count the residues as written; N and C are the ends. Side chains are listed from the residue outwards. Ends that are not written are not given here. * marks the point of attachment. C20 diacid = O=C(O)CCCCCCCCCCCCCCCCCCC(=O)*; γGlu = O=C(O)[C@H](CCC(=O)[*:2])N[*:1]

T1: human amylin 3(a) receptor (human calcitonin receptor + RAMP-3) (human, UniProt P30988 25-474; O60896 24-148, limits assumed)
T1 construct: whole, on cells; Whole cells in the luciferase assay (Assay II a); also called hAmylin-R; hAmylinR
T1 sequence (looked up) 1: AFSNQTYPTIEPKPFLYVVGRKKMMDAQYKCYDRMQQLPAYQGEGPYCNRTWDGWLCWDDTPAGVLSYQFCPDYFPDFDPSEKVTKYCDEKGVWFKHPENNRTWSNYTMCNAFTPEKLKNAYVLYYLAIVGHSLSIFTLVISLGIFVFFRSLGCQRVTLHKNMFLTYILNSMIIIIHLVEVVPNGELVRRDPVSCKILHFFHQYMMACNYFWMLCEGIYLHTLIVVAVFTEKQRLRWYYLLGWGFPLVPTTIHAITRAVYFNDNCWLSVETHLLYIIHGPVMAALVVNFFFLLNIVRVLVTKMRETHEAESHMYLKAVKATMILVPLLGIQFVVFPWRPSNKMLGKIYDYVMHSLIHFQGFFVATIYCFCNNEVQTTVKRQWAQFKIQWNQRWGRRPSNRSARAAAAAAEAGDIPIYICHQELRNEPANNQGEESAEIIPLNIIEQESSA
T1 sequence (looked up) 2: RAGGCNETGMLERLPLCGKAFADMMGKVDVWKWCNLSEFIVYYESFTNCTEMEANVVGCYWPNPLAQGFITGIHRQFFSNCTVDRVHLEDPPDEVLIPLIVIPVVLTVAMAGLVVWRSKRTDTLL

T2: human calcitonin receptor (human, UniProt P30988 25-474)
T2 sequence (looked up): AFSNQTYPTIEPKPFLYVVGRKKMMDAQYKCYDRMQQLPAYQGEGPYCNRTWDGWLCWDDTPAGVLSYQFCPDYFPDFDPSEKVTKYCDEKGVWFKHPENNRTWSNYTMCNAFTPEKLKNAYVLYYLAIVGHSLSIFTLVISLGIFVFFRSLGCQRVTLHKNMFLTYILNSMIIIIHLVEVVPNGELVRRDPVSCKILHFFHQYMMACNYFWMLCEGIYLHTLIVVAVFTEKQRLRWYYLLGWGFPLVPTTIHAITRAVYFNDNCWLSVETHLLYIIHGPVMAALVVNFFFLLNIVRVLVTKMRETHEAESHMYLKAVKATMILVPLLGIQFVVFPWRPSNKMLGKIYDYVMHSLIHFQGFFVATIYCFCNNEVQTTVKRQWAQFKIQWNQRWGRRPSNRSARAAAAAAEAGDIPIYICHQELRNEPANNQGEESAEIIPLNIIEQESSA

T3: human calcitonin receptor (human, UniProt P30988 25-474)
T3 sequence (looked up): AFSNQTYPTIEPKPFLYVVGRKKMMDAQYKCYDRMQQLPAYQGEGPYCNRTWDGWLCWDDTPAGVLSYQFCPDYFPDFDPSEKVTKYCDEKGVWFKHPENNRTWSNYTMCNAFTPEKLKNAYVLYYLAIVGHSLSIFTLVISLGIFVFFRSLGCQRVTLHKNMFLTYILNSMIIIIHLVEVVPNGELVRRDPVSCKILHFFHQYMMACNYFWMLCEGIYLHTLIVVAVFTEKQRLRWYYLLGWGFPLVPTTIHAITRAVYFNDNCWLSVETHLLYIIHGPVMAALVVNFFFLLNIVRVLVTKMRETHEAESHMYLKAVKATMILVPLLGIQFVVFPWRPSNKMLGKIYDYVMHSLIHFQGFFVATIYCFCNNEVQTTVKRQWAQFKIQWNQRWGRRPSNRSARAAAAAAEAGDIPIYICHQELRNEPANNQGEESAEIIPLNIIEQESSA

T4: human amylin receptor (amylin 3(a) receptor: human calcitonin receptor with RAMP-3) (human, UniProt P30988 25-474; O60896 24-148, limits assumed)
T4 sequence (looked up) 1: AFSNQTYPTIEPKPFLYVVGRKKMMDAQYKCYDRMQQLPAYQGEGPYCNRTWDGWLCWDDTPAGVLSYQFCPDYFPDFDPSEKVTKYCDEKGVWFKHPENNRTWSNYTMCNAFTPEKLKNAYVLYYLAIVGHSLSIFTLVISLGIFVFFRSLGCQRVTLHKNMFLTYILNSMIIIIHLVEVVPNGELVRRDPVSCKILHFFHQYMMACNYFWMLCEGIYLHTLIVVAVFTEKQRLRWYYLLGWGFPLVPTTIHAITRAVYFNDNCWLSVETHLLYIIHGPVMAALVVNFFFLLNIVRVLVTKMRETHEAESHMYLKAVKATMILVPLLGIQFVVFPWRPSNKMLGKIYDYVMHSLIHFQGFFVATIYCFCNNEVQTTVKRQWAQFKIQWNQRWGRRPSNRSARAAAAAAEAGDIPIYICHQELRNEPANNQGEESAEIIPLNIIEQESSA
T4 sequence (looked up) 2: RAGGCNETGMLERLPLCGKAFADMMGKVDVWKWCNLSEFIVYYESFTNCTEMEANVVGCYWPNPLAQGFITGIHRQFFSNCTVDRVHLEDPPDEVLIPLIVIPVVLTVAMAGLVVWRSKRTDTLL

B1: N^α1-[(4S)-4-carboxy-4-(19-carboxynonadecanoylamino)butanoyl]-[Glu14,Arg17,Pro21,Pro25,Pro28,Pro29,Pro37]-h-amylin (peptide)
peptide: {C20 diacid-γGlu}-KCNTATCATQRLAEFLRHSSPNFGPILPPTNVGSNTP-NH2
modifications: disulfide 2-7
SMILES: CC[C@H](C)[C@H](NC(=O)[C@@H]1CCCN1C(=O)CNC(=O)[C@H](Cc1ccccc1)NC(=O)[C@H](CC(N)=O)NC(=O)[C@@H]1CCCN1C(=O)[C@H](CO)NC(=O)[C@H](CO)NC(=O)[C@H](Cc1c[nH]cn1)NC(=O)[C@H](CCCNC(=N)N)NC(=O)[C@H](CC(C)C)NC(=O)[C@H](Cc1ccccc1)NC(=O)[C@H](CCC(=O)O)NC(=O)[C@H](C)NC(=O)[C@H](CC(C)C)NC(=O)[C@H](CCCNC(=N)N)NC(=O)[C@H](CCC(N)=O)NC(=O)[C@@H](NC(=O)[C@H](C)NC(=O)[C@@H]1CSSC[C@H](NC(=O)[C@H](CCCCN)NC(=O)CC[C@H](NC(=O)CCCCCCCCCCCCCCCCCCC(=O)O)C(=O)O)C(=O)N[C@@H](CC(N)=O)C(=O)N[C@@H]([C@@H](C)O)C(=O)N[C@@H](C)C(=O)N[C@@H]([C@@H](C)O)C(=O)N1)[C@@H](C)O)C(=O)N[C@@H](CC(C)C)C(=O)N1CCC[C@H]1C(=O)N1CCC[C@H]1C(=O)N[C@H](C(=O)N[C@@H](CC(N)=O)C(=O)N[C@H](C(=O)NCC(=O)N[C@@H](CO)C(=O)N[C@@H](CC(N)=O)C(=O)N[C@H](C(=O)N1CCC[C@H]1C(N)=O)[C@@H](C)O)C(C)C)[C@@H](C)O
notes: disulfide and C-terminal amide as told for human amylin and the amide resins of the synthesis; also called compound 4
B2: N^ε1-[(4S)-4-carboxy-4-[[(4S)-4-carboxy-4-(19-carboxynonadecanoylamino)butanoyl]amino]butanoyl]-[Glu14,Arg17,Pro21,Pro27,Pro34,Phe37]-h-amylin (peptide)
peptide: K([γGlu-γGlu-C20 diacid])CNTATCATQRLAEFLRHSSPNFGAIPSSTNVGPNTF-NH2
modifications: disulfide 2-7; N-terminus assumed
SMILES: CC[C@H](C)[C@H](NC(=O)[C@H](C)NC(=O)CNC(=O)[C@H](Cc1ccccc1)NC(=O)[C@H](CC(N)=O)NC(=O)[C@@H]1CCCN1C(=O)[C@H](CO)NC(=O)[C@H](CO)NC(=O)[C@H](Cc1c[nH]cn1)NC(=O)[C@H](CCCNC(=N)N)NC(=O)[C@H](CC(C)C)NC(=O)[C@H](Cc1ccccc1)NC(=O)[C@H](CCC(=O)O)NC(=O)[C@H](C)NC(=O)[C@H](CC(C)C)NC(=O)[C@H](CCCNC(=N)N)NC(=O)[C@H](CCC(N)=O)NC(=O)[C@@H](NC(=O)[C@H](C)NC(=O)[C@@H]1CSSC[C@H](NC(=O)[C@@H](N)CCCCNC(=O)CC[C@H](NC(=O)CC[C@H](NC(=O)CCCCCCCCCCCCCCCCCCC(=O)O)C(=O)O)C(=O)O)C(=O)N[C@@H](CC(N)=O)C(=O)N[C@@H]([C@@H](C)O)C(=O)N[C@@H](C)C(=O)N[C@@H]([C@@H](C)O)C(=O)N1)[C@@H](C)O)C(=O)N1CCC[C@H]1C(=O)N[C@@H](CO)C(=O)N[C@@H](CO)C(=O)N[C@H](C(=O)N[C@@H](CC(N)=O)C(=O)N[C@H](C(=O)NCC(=O)N1CCC[C@H]1C(=O)N[C@@H](CC(N)=O)C(=O)N[C@H](C(=O)N[C@@H](Cc1ccccc1)C(N)=O)[C@@H](C)O)C(C)C)[C@@H](C)O

Experiments:
[1] = biological target: T1, human amylin 3(a) receptor (human …); experiment: SPA competition binding, membranes of BHK cells with human calcitonin receptor + RAMP-3, displacement of 125I-rat amylin (Assay V)
Protocol: The binding assay was performed using scintillation proximity assay (SPA) beads (RPNQ0001) from PerkinElmer and cell membranes from the Amylin 3(a)/CRE-luc cells (as described in Assay (II)) were used. Membranes were prepared in the following way; the cells were rinsed with PBS and incubated with Versene for approximately 5 min before harvesting. The cells were flushed with PBS and the cell-suspension was centrifuged for 5 min at 1000 rpm. Cells were homogenized (ultrathurrax) in a buffer containing 20 mM Na-HEPES and 10 mM EDTA (pH 7.4) and centrifuged at 20.000 rpm for 15 min. The resulting pellet was resuspended, homogenized and centrifuged (20.000 rpm, 15 min) in a buffer containing 20 mM Na-HEPES and 0.1 mM EDTA (pH 7.4, buffer 2). The resulting pellet was resuspended in buffer 2 and protein concentration was measured (BCA protein Assay, Pierce). The homogenate was kept cold during the whole procedure. The membranes were kept at −80° C. until use. The assay was performed in a 384 well Optiplate (PerkinElmer) in a total volume of 40 ul. Membranes were mixed with SPA beads. Final concentration of membranes 35 ng/μL final and SPA beads was 0.05 mg/well. Test-compounds were dissolved in DMSO and further diluted in assay buffer (50 mM Hepes, pH 7.4, 1 mM CaCl2, 5 mM MgCl₂, 0.1% OA and 0.02% Tween20). […] The final mixture was incubated with shaking at 400 rpm for 120 min at 25° C. prior to centrifugation (1500 rpm, 10 min). Samples were analyzed on TopCounter™ (Packard). The IC₅₀ was calculated using (one site binding competition analysis) GraphPad Prism5 as a measure of receptor affinity.

[2] = biological target: T2, human calcitonin receptor; experiment: cell-based or functional assay
[3] = biological target: T1, human amylin 3(a) receptor (human …); experiment: cell-based or functional assay
[4] = biological target: T3, human calcitonin receptor; experiment: cell-based or functional assay; remark: listed apart in the source
[5] = biological target: T4, human amylin receptor (amylin 3(a) …); experiment: cell-based or functional assay

| Binder | IC50 [1] [nM] | Ratio hCT/hAmylin funct. [2] | hAmylin-R funct. EC50 (pM) [3] [pM] | Ratio hCT/hAmylin funct. [4] [ratio] | hCTR funct. EC50 (pM) [4] [pM] | hAmylin-R funct. EC50 (pM) [5] [pM] |
| --- | --- | --- | --- | --- | --- | --- |
| B1 | 0.321 | 1.2 | 60 |  |  |  |
| B2 |  |  |  | 9.9 | 2140 | 216 |
